Assay [1] concerns human ENTPD2 engineered B16LM3 clone B5 tumor. As to the kind of experiment: Human ENTPD2 engineered B16LM3 clone B5 xenograft model, combination with A2AR antagonist NIR178. Type of assay: in vivo. Particulars: NIR178 p.o. 4 days on and 3 days off at either 50 or 200 mg/kg with isotype control 10 mg/kg. Here is the method:
Human ENTPD2-engineered B16LM3 clone B5 was established in female C57BL/6 mice by subcutaneous injection of 0.5×10^6 cells into the right flank of each mouse. Once tumors reached approximately 50 mm^3, mice were randomized according to tumor volume into treatment groups (n=8 per group). Mice received an intravenous (i.v.) treatment of either anti-ENTPD2 mAb1 at a final dose of 10/mg/kg or a non-specific human IgG1 isotype control 10 mg/kg on day 1 of study. NIR178 was administered per os (p.o.) for 4 days on and 3 days off, starting at the beginning of study at either 50 mg/kg or 200 mg/kg. All doses were adjusted to individual mouse body weights. The study was carried out for thirteen days post treatment initiation and tumor volumes were assessed every other day to assess efficacy.
For orientation: Xenograft models place foreign cells or tissue in a host animal.

For assay [2], the target named is T1, recombinant human ENTPD2 (residues 29-462) (Homo sapiens, UniProt Q9Y5L3).
T1 construct: residues 29-462 of human or cyno ENTPD2 were cloned into expression vector; GP67 signal peptide (N); made in house; host or cells: High Five (Trichoplusia ni) insect cells, baculovirus
T1 sequence (Q9Y5L3 29-462): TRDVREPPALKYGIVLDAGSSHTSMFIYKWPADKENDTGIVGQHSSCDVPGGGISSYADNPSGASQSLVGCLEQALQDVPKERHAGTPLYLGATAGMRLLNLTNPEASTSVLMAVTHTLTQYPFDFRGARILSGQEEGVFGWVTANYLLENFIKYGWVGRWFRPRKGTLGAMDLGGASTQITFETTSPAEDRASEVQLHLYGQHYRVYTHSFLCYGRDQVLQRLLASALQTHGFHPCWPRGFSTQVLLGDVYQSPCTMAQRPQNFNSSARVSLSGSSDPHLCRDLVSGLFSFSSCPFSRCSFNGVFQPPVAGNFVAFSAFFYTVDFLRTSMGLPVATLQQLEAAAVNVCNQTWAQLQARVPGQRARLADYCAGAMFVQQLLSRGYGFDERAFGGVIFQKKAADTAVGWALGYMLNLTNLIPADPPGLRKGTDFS
As to the kind of experiment: Biochemical human ENTPD2 functional assay (Transcreener ADP2 TR-FRET). The conditions noted are these: FIG. 15. The source says: Biochemical and cell-based functional assays were developed in-house to understand functional impact of anti-ENTPD2 Abs against purified extracellular domain of ENTPD2 (residues 29-462), as well as against the fully intact protein in the context of the native cell-based conformation. ENTPD2 hydrolyzes ATP to ADP, which can subsequently be detected using the HTRF Transcreener ADP2 TR-FRET Red Assay (BellBrook Labs, Madison, WI) where ENTPD2-produced ADP would compete with the ADP Tracer for binding to the anti-ADP-Tb antibody. The resulting signal is inversely proportional to the concentration of ADP in the sample. […]
HTRF signal (Emission at 620 nm and 665 nm) was assessed in both assays using the Envision plate reader in HTRF mode (Perkin Elmer, Waltham, MA). HTRF ratio was determined using the following formula: HTRF ratio=R=Emission at 665 nm/Emission at 620 nm×10,000. Subsequently % Residual Activity and % Inhibition were determined as follows:
Where R0% is the HTRF ratio of the negative control (0% enzyme activity), and R100% is the HTRF ratio of the positive control (100% enzyme activity). Data were analyzed in Microsoft Excel and graphed using GraphPad's Prism 7.0 software and IC50 values were obtained using non-linear regression, log (agonist) vs. response-variable slope (four parameters) analysis.
In general terms: TR-FRET usually uses a lanthanide donor and a delayed reading to cut background.

The target in the next assay is T2, ENTPD2 (Homo sapiens, UniProt Q9Y5L3).
T2 sequence (Q9Y5L3 1-495): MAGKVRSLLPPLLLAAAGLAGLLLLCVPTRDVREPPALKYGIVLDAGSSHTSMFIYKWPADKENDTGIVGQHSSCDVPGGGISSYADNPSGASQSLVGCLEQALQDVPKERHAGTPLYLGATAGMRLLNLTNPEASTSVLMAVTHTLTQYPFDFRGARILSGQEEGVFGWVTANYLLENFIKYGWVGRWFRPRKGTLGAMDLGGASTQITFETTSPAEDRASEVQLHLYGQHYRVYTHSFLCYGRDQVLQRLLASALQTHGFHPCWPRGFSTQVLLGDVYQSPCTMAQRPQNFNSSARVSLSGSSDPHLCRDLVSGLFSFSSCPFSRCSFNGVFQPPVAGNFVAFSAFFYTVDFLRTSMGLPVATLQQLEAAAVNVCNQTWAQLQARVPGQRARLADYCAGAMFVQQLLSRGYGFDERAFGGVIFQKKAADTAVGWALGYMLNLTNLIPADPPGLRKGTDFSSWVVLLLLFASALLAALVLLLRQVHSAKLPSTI
The assay can be described thus: Hybridoma mAb screen, cell-based assay for inhibition of ATP hydrolysis by ENTPD2. The conditions noted are these: hybridoma-derived mAbs. The source says: Hybridoma-derived mAbs were screened in a cell-based assay for inhibition of ATP hydrolysis by ENTPD2.

As for `Nc1nc(-n2cccn2)nc(-n2cccn2)c1Br` [NIR178, 5-bromo-2,6-di-(1H-pyrazol-1-yl)pyrimidine-4-amine], the “anti-tumor efficacy, non-specific isotype control and NIR178” value in assay [1] is reported as “No significant anti-tumor efficacy”.

B1: mAb17: hybridoma-derived lead inhibitory anti-human ENTPD2 mAb (antibody, V domains shown)
VH: EVQLQQFGAELVKPGASVKISCKASGYTFTDYNMDWVKQSHGKSLEWIGDINPKYDISTYNQQFKGKATLTVDKSSSTAYMELRSLTSEDTAVYYCARRGFFLYYGINYYYFDVWGAGTTVTVSS
VL: QIVLTQSPAIMSASLGEEITLTCSASSSVSYIHWYQQKSGTSPTLLIYSTSNLASGVPSRFSGSGSGTFYSLTISSVEAEDAADYYCHQWSSYPWTFGGGTKLEIK
As to B1, the “inhibition of the catalytic activity of the recombinant human ENTPD2” value in assay [2] is given as “potently inhibit”. Besides, in the assay with ENTPD2, the “inhibition of ATP hydrolysis by ENTPD2 (screen outcome)” value is on record as “lead inhibitory”.

The values are drawn from patent publication US11939397B2, “ENTPD2 antibodies, combination therapies, and methods of using the antibodies and combination therapies” (Novartis AG, priority 2018, dated 2024).
